According to paper PMC2720833:

Target: GST-Cullin5 (NTD), N-terminal domain of murine cullin5 (Met1-Leu385) with V341R and L345D (murine) (UniProt Q9D5V5)
Test: SPR

GST-Cullin5 (NTD), N-terminal domain of murine cullin5 (Met1-Leu385) with V341R and L345D (murine), sequence (Q9D5V5 1-385 V341R/L345D): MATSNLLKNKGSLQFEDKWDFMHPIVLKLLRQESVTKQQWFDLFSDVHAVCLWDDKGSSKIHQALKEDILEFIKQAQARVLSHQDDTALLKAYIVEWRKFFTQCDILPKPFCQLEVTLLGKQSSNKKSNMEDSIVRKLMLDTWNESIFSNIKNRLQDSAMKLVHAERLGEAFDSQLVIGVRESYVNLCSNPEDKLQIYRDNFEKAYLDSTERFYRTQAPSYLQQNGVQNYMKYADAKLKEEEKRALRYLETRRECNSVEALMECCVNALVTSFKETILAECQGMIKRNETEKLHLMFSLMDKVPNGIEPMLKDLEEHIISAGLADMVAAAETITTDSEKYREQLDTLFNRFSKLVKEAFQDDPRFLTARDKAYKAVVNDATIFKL

SOCS3 box/elonginBC ternary complex (from UniProt Q15370 1-118; P83940 17-112)
KD by Biacore relative to KD by ITC (fold): 4 fold
half-life of the complex: 10 s
